From US20220372132A1 (SG MEDICAL, published 2022) come the findings set out here.

The target in assay [1] is T1, recombinant human αVβ1 integrin (R&D Systems, USA) (human, UniProt P06756 31-992; P05556 21-728).
T1 construct: Bought heterodimer
The assay can be described thus: indirect ELISA, integrin coated at 1 µg/ml, HRP anti-human Fc detection. The procedure: (§1) The affinities of the monoclonal antibody GP5 for various integrins were measured by indirect ELISA to determine the specificity of the monoclonal antibody GP5 for beta 1 integrin. Each of recombinant human αVβ1 integrin (R&D Systems, USA), αVβ3 integrin (R&D Systems, USA), αVβ5 integrin (R&D Systems, USA), αVβ6 integrin (R&D Systems, USA), αVβ8 integrin (R&D Systems, USA), α5β1 integrin (R&D Systems, USA), and α2bβ3 integrin (R&D Systems, USA) was diluted to 1 μg/ml in 50 μl of PBS, plated in a 96-well immune plate (Corning, USA), and stored at 4° C. overnight for its adsorption. After incubation with a buffer containing 3% bovine serum albumin (Millipore, USA) at 37° C. for 1 h, the wells were treated with the monoclonal antibody GP5 sequentially diluted to concentrations of 0.01, 0.03, 0.1, 0.3, 1, 3, 100, 300, and 1000 nM (50 μl/well). The well plate was incubated at 37° C. for 2 h to allow the antibody to bind to the antigen and washed 3 times with a buffer containing 0.5% Tween 20 (Amresco, USA). The wells were treated with HRP-labeled anti-human Fc IgG secondary antibody diluted 1:3000 with PBS (50 μl/well). The well plate was incubated at 37° C. for 1 h and washed 3 times with a buffer containing 0.5% Tween 20 (Amresco, USA). […] Absorbance was measured at 450 nm using a spectrophotometer (Biotek, USA).
(ELISA stands for enzyme-linked immunosorbent assay.)

Assay [2] deals with T2, α5β1 integrin (R&D Systems, USA) (human, UniProt P08648 42-995; P05556 21-728).
T2 construct: Bought heterodimer; also called recombinant human α5β1 integrin
T2 sequence (P08648 42-995 limits assumed, chain 1 of 2): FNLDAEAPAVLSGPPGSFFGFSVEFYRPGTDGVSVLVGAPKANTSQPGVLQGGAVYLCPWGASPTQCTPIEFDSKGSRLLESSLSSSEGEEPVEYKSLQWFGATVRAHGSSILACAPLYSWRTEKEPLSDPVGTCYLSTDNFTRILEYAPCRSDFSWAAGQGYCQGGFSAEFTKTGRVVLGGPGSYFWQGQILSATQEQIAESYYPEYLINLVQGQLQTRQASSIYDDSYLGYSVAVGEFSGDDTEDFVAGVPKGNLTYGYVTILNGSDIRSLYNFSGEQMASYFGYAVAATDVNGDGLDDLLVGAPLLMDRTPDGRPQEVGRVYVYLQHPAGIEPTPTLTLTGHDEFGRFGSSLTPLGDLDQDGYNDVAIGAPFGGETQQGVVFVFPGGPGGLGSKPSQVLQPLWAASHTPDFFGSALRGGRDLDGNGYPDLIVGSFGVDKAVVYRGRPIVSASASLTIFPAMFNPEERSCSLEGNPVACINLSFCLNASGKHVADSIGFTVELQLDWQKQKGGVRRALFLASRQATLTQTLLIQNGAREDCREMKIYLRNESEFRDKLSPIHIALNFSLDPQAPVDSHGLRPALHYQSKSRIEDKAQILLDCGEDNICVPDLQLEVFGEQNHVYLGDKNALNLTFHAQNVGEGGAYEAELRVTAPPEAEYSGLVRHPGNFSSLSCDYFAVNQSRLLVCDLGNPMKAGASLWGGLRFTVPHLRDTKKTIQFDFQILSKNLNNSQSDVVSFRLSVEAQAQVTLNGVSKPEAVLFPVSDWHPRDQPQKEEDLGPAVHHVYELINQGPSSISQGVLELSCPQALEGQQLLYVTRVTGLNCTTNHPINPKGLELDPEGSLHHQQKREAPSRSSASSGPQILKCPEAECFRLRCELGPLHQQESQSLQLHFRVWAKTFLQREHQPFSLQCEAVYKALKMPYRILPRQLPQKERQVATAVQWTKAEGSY
T2 sequence (P05556 21-728 limits assumed, chain 2 of 2): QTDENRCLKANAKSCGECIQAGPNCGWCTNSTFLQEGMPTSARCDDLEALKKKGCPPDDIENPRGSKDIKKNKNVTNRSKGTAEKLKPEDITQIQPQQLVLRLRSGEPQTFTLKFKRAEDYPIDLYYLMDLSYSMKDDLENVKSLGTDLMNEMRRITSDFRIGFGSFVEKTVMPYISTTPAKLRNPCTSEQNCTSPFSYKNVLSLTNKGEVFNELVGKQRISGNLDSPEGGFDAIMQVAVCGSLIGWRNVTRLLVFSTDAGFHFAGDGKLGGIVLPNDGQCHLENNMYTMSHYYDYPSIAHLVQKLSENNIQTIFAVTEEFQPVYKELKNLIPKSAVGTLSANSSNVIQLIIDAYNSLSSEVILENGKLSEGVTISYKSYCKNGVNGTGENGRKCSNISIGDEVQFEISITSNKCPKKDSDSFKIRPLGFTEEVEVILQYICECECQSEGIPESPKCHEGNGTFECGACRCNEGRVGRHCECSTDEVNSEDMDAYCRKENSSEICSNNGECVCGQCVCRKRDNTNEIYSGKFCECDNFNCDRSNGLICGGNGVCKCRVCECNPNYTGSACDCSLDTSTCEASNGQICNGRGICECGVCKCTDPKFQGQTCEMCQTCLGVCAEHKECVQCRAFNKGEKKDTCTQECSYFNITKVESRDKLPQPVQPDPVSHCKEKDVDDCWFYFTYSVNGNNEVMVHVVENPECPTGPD
The description is as above. The procedure:
as §1

T1 sequence (P06756 31-992 limits assumed, chain 1 of 2): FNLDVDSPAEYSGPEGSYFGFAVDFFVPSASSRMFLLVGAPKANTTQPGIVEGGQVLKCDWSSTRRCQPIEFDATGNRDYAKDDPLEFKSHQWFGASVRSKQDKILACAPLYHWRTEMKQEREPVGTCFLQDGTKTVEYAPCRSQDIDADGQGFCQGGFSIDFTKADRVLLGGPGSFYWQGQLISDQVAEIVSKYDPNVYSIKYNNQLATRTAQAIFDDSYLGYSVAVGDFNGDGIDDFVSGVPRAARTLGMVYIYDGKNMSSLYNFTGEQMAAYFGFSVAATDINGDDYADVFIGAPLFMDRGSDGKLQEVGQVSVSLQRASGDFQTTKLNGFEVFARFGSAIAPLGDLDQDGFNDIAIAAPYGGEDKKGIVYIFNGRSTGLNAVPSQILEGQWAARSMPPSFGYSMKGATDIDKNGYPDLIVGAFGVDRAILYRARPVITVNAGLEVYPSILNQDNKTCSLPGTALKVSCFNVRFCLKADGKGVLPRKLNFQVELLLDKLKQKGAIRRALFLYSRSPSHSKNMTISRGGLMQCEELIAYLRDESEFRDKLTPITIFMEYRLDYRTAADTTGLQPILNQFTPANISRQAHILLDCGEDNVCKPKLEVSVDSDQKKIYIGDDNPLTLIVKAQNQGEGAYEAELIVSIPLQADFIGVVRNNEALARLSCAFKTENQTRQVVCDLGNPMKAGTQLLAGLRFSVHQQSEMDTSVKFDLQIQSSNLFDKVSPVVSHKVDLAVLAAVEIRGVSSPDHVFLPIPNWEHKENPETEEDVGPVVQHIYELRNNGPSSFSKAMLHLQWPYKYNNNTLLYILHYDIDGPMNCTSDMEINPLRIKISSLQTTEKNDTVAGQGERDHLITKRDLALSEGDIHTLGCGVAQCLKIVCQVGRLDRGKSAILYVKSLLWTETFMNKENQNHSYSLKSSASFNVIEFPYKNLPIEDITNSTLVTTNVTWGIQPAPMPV
T1 sequence (P05556 21-728 limits assumed, chain 2 of 2): as the sequence (P05556 21-728 limits assumed, chain 2 of 2) above

B1: monoclonal antibody GP5 (antibody, human IgG1, V domains shown)
VH: QVQLQQSGSELMKPGASVKVSCKASGYTFTNYWIEWIVQRPGHGLEWIGEILPGSVNTNYNAKFKDRATFTADTSTDTASMELSSLTSEDSAVYYCALATPYYALDSWGQGTSVTVSS
VL: DIVMTQAAPSLSVTPGESVSISCRSTESLLHSNGNTYLYWYLQKPGQSPQLLIYRMSNRASGVPDRFSGSGSGTAFTLKIRRVEAEDVGVYYCMQHLEYPFTFGAGTKLELK
notes: Full IgG made in HEK293F cells; The humanized VH is joined to a human IgG1 heavy chain constant region (CH1, CH2, CH3) and the VL to a human Ckappa; also called humanized antibody GP5; modified monoclonal antibody (GP5)
Regarding B1, the binding result in assay [1] and in assay [2] was “binds” in each case.
